# Patent US20210054071A1 (NANJING LEGEND BIOTECH, published 2021)
# B1: BTP-11 (bispecific antibody, human IgG4 S228P, kappa)
# heavy: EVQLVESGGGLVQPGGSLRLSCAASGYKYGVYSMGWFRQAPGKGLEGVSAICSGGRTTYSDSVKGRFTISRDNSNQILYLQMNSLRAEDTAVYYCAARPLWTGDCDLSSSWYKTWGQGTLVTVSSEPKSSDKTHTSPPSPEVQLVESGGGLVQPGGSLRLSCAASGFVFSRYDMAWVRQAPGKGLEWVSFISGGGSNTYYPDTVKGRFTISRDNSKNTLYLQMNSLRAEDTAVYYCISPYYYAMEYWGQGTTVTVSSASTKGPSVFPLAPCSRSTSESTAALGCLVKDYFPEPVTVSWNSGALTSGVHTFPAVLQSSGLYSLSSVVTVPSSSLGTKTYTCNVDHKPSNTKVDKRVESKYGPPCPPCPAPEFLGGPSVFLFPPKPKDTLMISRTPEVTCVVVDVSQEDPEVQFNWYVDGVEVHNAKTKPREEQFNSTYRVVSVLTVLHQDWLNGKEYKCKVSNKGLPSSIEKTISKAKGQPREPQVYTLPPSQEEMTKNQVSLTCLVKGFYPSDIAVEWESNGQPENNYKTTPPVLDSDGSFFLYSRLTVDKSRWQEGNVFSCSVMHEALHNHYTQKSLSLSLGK
# light: DIQMTQSPSSVSASVGDRVTITCKASQDVDTAVAWYQQKPGKAPKLLIYWASTRHTGVPSRFSGSGSGTDFTLTISSLQPEDFATYYCQQYSTFPWTFGGGTKVEIKRTVAAPSVFIFPPSDEQLKSGTASVVCLLNNFYPREAKVQWKVDNALQSGNSQESVTEQDSKDSTYSLSSTLTLSKADYEKHKVYACEVTHQGLSSPVTKSFNRGEC
# notes: AS19584VH28 - mutated hIgG1 hinge - PD1-BM-min heavy chain (IgG4); also called BTP-11 (IgG4); PD-1×TIGIT BABP
# B2: AS19584VH28-Fc fusion protein with effectorless human IgG1 (inert hIgG1) Fc (Fc fusion)
# chain: EVQLVESGGGLVQPGGSLRLSCAASGYKYGVYSMGWFRQAPGKGLEGVSAICSGGRTTYSDSVKGRFTISRDNSNQILYLQMNSLRAEDTAVYYCAARPLWTGDCDLSSSWYKTWGQGTLVTVSSAPELLGGPSVFLFPPKPKDTLMISRTPEVTCVVVDVSHEDPEVKFNWYVDGVEVHNAKTKPREEQYASTYRVVSVLTVLHQDWLNGKEYKCKVSNKALPAPIEKTISKAKGQPREPQVYTLPPSREEMTKNQVSLTCLVKGFYPSDIAVEWESNGQPENNYKTTPPVLDSDGSFFLYSKLTVDKSRWQQGNVFSCSVMHEALHNHYTQKSLSLSPGK
# notes: built from the sdAb and the inert IgG1 Fc region it names; also called AS19584VH28 (inert IgG1); AS19584VH28 inert IgG1
# B3: BTP-13 (bispecific antibody, human IgG4 S228P, kappa)
# heavy: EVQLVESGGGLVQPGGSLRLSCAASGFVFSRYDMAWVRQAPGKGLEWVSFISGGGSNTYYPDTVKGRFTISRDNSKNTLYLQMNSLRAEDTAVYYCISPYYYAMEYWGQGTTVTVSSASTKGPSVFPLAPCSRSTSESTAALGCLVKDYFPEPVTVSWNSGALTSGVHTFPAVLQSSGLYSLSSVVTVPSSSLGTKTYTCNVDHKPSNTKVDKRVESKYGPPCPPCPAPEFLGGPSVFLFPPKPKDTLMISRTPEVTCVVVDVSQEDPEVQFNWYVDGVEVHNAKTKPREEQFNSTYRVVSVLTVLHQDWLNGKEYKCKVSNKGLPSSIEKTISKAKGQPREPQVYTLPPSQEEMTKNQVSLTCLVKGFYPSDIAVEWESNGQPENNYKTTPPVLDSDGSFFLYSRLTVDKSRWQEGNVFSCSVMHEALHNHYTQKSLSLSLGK
# light: EVQLVESGGGLVQPGGSLRLSCAASGYKYGVYSMGWFRQAPGKGLEGVSAICSGGRTTYSDSVKGRFTISRDNSNQILYLQMNSLRAEDTAVYYCAARPLWTGDCDLSSSWYKTWGQGTLVTVSSEPKSSDKTHTSPPSPDIQMTQSPSSVSASVGDRVTITCKASQDVDTAVAWYQQKPGKAPKLLIYWASTRHTGVPSRFSGSGSGTDFTLTISSLQPEDFATYYCQQYSTFPWTFGGGTKVEIKRTVAAPSVFIFPPSDEQLKSGTASVVCLLNNFYPREAKVQWKVDNALQSGNSQESVTEQDSKDSTYSLSSTLTLSKADYEKHKVYACEVTHQGLSSPVTKSFNRGEC
# notes: AS19584VH28 - mutated hIgG1 hinge - PD1-BM-min light chain; PD1-BM-min heavy chain (IgG4); also called BTP-13 (IgG4); PD-1×TIGIT BABP
# Tests used:
# PD-1 expressed on cells [1] = biological target: T1, PD-1 expressed on cells (UniProt Q15116 25-288, limits assumed); assay: FACS, CHO-PD-1 cells
# T1 construct: whole, on cells; also called CHO-PD-1 cells; PD-1 effector cells
# T1 sequence (Q15116 25-288 limits assumed): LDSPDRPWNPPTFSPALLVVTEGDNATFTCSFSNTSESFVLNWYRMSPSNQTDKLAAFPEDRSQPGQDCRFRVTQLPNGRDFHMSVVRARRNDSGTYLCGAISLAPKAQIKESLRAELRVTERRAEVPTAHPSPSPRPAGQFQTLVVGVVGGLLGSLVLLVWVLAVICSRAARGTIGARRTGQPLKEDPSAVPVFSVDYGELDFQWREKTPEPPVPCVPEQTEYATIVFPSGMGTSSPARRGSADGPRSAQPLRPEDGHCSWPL
# PD-1 expressed on cells [2] = biological target: T1, PD-1 expressed on cells; assay: FACS competition, PD-L1 binding to CHO-PD-1 cells
# PD-1 expressed on cells [3] = biological target: T1, PD-1 expressed on cells; assay: cell-based or functional assay
# [4] = biological target: T2, TIGIT on TIGIT effector cells (UniProt Q495A1 22-244, limits assumed); assay: cell-based or functional assay
# T2 sequence (looked up): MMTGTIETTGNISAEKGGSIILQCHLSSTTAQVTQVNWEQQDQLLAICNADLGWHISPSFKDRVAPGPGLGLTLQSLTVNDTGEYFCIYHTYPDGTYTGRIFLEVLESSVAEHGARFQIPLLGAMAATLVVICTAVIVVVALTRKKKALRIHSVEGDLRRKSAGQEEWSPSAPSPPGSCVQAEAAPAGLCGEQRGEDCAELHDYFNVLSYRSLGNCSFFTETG
# [5] = biological target: T3, mouse TIGIT-His protein (Acrobiosystems) (mouse, UniProt P86176 29-148, limits assumed); assay: SPR as in Example 2
# T3 construct: bought
# T3 sequence (looked up): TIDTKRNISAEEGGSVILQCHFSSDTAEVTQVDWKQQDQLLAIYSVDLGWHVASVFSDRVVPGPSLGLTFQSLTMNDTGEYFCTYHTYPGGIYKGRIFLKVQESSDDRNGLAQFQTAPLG
# Protocol: (§1) BIAcore T200 instrument was utilized to determine affinity constant (KD) of each anti-TIGIT sdAb-Fc fusion protein by SPR. […] Anti-TIGIT sdAb-Fc fusion proteins were injected at no less than 5 different concentrations.
# [6] = biological target: T4, human PD-1 (Acrobiosystems) (human, UniProt Q15116 25-167); assay: SPR as in Example 2
# T4 construct: bought
# T4 sequence (Q15116 25-167 limits assumed): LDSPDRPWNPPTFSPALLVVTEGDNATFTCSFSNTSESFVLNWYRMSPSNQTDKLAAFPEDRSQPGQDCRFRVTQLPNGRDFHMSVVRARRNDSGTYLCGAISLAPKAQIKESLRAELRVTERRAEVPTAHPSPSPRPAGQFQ
# Protocol: as §1
# [7] = biological target: T2, TIGIT on TIGIT effector cells; assay: cell-based or functional assay; remark: listed apart in the source
# [8] = biological target: T5, TIGIT on activated primary human T cells (human, UniProt Q495A1); assay: FACS binding to activated, expanded primary human CD4+ T cells isolated from PBMCs; the sheet names only the cells, target by the binder's specificity as named in the filing (anti-TIGIT)
# T5 sequence (receptor, looked up): T2 sequence (looked up)
# [9] = biological target: T5, TIGIT on activated primary human T cells; assay: FACS binding to activated, expanded primary human CD8+ T cells isolated from PBMCs; the sheet names only the cells, target by the binder's specificity as named in the filing (anti-TIGIT)
# [10] = biological target: T6, human TIGIT-His protein (Acrobiosystems) (human, UniProt Q495A1 22-141); assay: SPR as in Example 2
# T6 construct: Bought; Genbank NP_776160
# T6 sequence: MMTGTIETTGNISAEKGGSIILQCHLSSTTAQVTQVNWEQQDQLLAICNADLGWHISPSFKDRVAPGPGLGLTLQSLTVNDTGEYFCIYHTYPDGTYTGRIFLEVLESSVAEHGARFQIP
# Protocol: as §1
Binder,EC50 (PD-1 expressed on cells [1]),EC50 (PD-1 expressed on cells [2]),PD-1 cell based assay EC50 (PD-1 expressed on cells [3]),TIGIT IL-2 release EC50 [4],TIGIT Reporter assay EC50 [4],Kd [5],Kd [6],PD-L1/TIGIT bifunctional reporter assay: EC50 [7],PD-L1/TIGIT bifunctional reporter assay: Upper plateau of signal [7],EC50 [8],EC50 [9],Kd [10]
B1,6.31 nM,8.68 nM,8.51 nM,0.778 nM,7.81 nM,0.5 nM,4 nM,,,,,
B2,,,,,5.42 nM,1.1 nM,,10.6 nM,1610,0.107 nM,0.174 nM,0.36 nM
B3,1.92 nM,2.21 nM,2.33 nM,0.565 nM,4.03 nM,0.62 nM,0.42 nM,,,,,
